Test results as given in IntAct's records for PubMed 10523676.

B1: DNA polymerase alpha catalytic subunit (Mus musculus), P33609 (parent)
chain: MAPMHEEDCKLEASAVSDSGSFAASRARREKKSKKGRQEALERLKKAKAGEKYKYEVEDLTSVYEEVDEEQYSKLVQARQDDDWIVDDDGIGYVEDGREIFDDDLEDDALDTCGKGSDGKAHRKDRKDVKKPSVTKPNNIKAMFIASAGKKTTDKAVDLSKDDLLGDILQDLNTETAQITPPPVLIPKKKRSTGALLNPFSVHTPKAIPSGKPASPVLRNEPLLTPIPLKRAELAGELAQPECPEDEQELGVMEFEDGDFDESMDTEKVDEKPVTAKTWDQETEPVERVEHEADPERGTTSYLENFLPDVSCWDIDQDDESIPQEVQVDSSNLPLVKGADDEQVFQFYWLDAYEDPYNQPGVVFLFGKVWIESVKTHVSCCVMVKNIERTLYFLPREMKFDLNTGKETAIPVTMKDVYEEFDSKISAKYKIMKFKSKIVEKNYAFEIPDVPEKSEYLEVRYSAEVPQLPQNLKGETFSHVFGTNTSSLELFLMNRKIKGPCWLEVKNPQLLNQPISWCKFEVMALKPDLVNVIKDVSPPPLVVMSFSMKTMQNVQNHQHEIIAMAALVHHSFALDKAPPEPPFQTHFCVVSKPKDCIFPCDFKEVISKKNMKVEIAATERTLIGFFLAKVHKIDPDILVGHNICSFELEVLLQRINECKVPYWSKIGRLRRSNMPKLGSRSGFGERNATCGRMICDVEISAKELIHCKSYHLSELVQQILKTERIVIPTENIRNMYSESSYLLYLLEHIWKDARFILQIMCELNVLPLALQITNIAGNIMSRTLMGGRSERNEFLLLHAFYENNYIVPDKQIFRKPQQKLGDEDEEIDGDTNKYKKGRKKATYAGGLVLDPKVGFYDKFILLLDFNSLYPSIIQEFNICFTTVQRVTSEVQKATEDEEQEQIPELPDPNLEMGILPREIRKLVERRKQVKQLMKQQDLNPDLVLQYDIRQKALKLTANSMYGCLGFSYSRFYAKPLAALVTYKGREILMHTKDMVQKMNLEVIYGDTDSIMINTNSTNLEEVFKLGNKVKSEVNKLYKLLEIDIDAVFKSLLLLKKKKYAALVVEPTSDGNYITKQELKGLDIVRRDWCDLAKDTGNFVIGQILSDQSRDTIVENIQKRLIEIGENVLNGSVPVSQFEINKALTKDPQDYPDRKSLPHVHVALWINSQGGRKVKAGDTVSYVICQDGSNLTATQRAYAPEQLQKLDNLAIDTQYYLAQQIHPVVARICEPIDGIDAVLIALWLGLDSTQFRVHQYHKDEENDALLGGPAQLTDEEKYKDCEKFKCLCPSCGTENIYDNVFEGSGLDMEPSLYRCSNVDCKVSPLTFMVQLSNKLIMDIRRCIKKYYDGWLICEEPTCCSRLRRLPLHFSRNGPLCPVCMKAVLRPEYSDKSLYTQLCFYRYIFDADCALEKLTEHEKDKLKKQFFPLRVLQDYRKVKNIAEQFLSWSGYSEVNLSKLFANYAGKS
partner: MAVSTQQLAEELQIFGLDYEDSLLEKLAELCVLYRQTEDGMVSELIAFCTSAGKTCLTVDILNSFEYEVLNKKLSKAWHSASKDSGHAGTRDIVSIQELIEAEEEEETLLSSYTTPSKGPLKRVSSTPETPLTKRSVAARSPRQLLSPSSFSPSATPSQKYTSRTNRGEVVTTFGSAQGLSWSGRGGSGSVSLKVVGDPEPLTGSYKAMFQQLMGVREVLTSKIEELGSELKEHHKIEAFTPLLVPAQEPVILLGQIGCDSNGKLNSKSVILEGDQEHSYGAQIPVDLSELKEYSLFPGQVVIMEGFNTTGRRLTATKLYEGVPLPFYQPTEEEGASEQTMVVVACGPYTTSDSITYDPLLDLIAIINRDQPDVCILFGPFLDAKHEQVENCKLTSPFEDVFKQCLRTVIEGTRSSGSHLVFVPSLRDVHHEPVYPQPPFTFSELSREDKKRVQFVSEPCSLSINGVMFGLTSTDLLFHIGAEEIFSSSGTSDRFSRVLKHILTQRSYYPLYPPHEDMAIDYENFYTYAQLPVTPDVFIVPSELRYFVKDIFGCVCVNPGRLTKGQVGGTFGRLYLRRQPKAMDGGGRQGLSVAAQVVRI

Variants of: B1
Details: with dpoa2_mouse Pola2, P33611

effect of a mutation on the interaction | Variant
decreasing interaction | C1375A;C1378A
decreasing interaction | C1287A;C1290A
